Assay results from PMC5981002, “Probing the interaction interface of the GADD45β/MKK7 and MKK7/DTP3 complexes by chemical cross-linking mass spectrometry” (International Journal of Biological Macromolecules, 2018).
Each block holds one molecule with its values, some of them ahead of it.

Legend:
[1] = target: His6-MKK7 Kinase Domain (MKK7_KD, residues 101–405, Ser271Asp and Thr275Asp) (UniProt O14733); test: other fluorescence titration; tryptophan fluorescence quenching; 1.25 μM MKK7_KD in 10 mM phosphate buffer pH 7.5, peptide added stepwise, 25.0 °C, excitation 295 nm, emission read at 333 nm
[2] = target: T1, Recombinant His6-GADD45β, O75293; test: cross-linking; SDA reacted first with GADD45β (preliminary reaction order), then photo-cross-linking; settings: remark: other sources report otherwise
T1 chain: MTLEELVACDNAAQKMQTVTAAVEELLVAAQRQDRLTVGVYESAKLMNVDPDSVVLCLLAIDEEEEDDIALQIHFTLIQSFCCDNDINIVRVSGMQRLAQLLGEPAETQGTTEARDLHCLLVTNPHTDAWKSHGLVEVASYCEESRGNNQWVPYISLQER

[3] = target: T2, His6-MKK7 Kinase Domain (MKK7_KD, residues 101–405, Ser271Asp and Thr275Asp) (UniProt O14733 101-405, Ser271Asp | Thr275Asp); test: SPR; Biacore3000; GADD45β covalently immobilised on a CM5 chip (EDC/NHS, pH 3.5), soluble MKK7_KD injected; KD averaged over the values at the various concentrations; settings: both partners purified
T2 construct: Theoretical mass with tag is printed as 36194.8 Da; In the GADD45β cross-linking experiment this protein was first labelled on amines with SDA (NHS-diazirine); also called MKK7_KD 101–405; MKK7_KD (101–405); source: E. coli BL21(DE3), pETDuet-1, purified (His-Trap, Superdex 75 gel filtration)
T2 sequence (looked up): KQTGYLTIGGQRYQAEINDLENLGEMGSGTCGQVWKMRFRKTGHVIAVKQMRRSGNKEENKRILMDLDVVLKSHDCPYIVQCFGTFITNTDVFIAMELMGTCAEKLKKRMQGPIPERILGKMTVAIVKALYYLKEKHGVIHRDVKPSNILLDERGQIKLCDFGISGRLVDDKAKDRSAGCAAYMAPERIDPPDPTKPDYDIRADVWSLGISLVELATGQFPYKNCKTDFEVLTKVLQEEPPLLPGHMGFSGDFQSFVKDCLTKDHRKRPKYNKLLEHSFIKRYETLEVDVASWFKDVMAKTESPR

[4] = target: T2, His6-MKK7 Kinase Domain (MKK7_KD, …); test: ELISA; MKK7_KD coated on polystyrene wells at 100 nM; biotinylated GADD45β at 10–160 nM; detection with Streptavidin-HRP; 1:1 curve fit; settings: both partners purified

Kd [1]: 100 nM
Molecule: DTP3 (Ac-D-Tyr-D-Arg-D-Phe-NH2) (peptide)

stoichiometry N [2]: 2
B1: Recombinant His6-GADD45β, O75293 1-160 (natural protein)
chain: MTLEELVACDNAAQKMQTVTAAVEELLVAAQRQDRLTVGVYESAKLMNVDPDSVVLCLLAIDEEEEDDIALQIHFTLIQSFCCDNDINIVRVSGMQRLAQLLGEPAETQGTTEARDLHCLLVTNPHTDAWKSHGLVEVASYCEESRGNNQWVPYISLQER

Kd [3]: ~6 nM
B2: Recombinant His6-GADD45β (natural protein, UniProt O75293 1-160, looked up)
chain: MTLEELVACDNAAQKMQTVTAAVEELLVAAQRQDRLTVGVYESAKLMNVDPDSVVLCLLAIDEEEEDDIALQIHFTLIQSFCCDNDINIVRVSGMQRLAQLLGEPAETQGTTEARDLHCLLVTNPHTDAWKSHGLVEVASYCEESRGNNQWVPYISLQER
notes: GADD45β, UniProt O75293, 160 amino acids; The theoretical mass of the tagged protein is printed as 19196.6 Da, against 17,818 Da for the 160-residue protein; also called Growth arrest and DNA-damage-inducible GADD45-family member GADD45β; source: E. coli BL21(DE3), pET28a, purified (His-Trap, Superdex 75 gel filtration)

Kd [4]: ~30 nM
B3: biotinylated GADD45β (natural protein, UniProt O75293 1-160, looked up)
chain: MTLEELVACDNAAQKMQTVTAAVEELLVAAQRQDRLTVGVYESAKLMNVDPDSVVLCLLAIDEEEEDDIALQIHFTLIQSFCCDNDINIVRVSGMQRLAQLLGEPAETQGTTEARDLHCLLVTNPHTDAWKSHGLVEVASYCEESRGNNQWVPYISLQER
modifications: biotin (site not stated)
notes: GADD45β, UniProt O75293, 160 amino acids; as m1, biotinylated; also called biotin-GADD45β; biotinylated variant of GADD45β; source: E. coli BL21(DE3), pET28a, purified (His-Trap, gel filtration), biotinylated
